Consider 1 molecule from US20240424107, “PREPARATION OF SITE-SPECIFIC POLYPEPTIDE CONJUGATES” (POSTECH RESEARCH AND BUSINESS DEVELOPMENT FOUNDATION, published 2024).

The target in this data set is trastuzumab (humanized IgG1 monoclonal antibody) (UniProt P01857-1;P01834 P01857-1:1-330,P01834:1-107). Put plainly: covalent conjugation at heavy chain only, at least one per antibody; HEPES pH 8.4, Mg, K, 37 C, 1 day. The settings on record: chain copies: 2. The text has this: Whether the aptamer brings oxanine close to the amine group of the target protein, enabling proximity-enhanced covalent bond formation, was monitored with SDS-PAGE (protein bands) and electrophoresis (DNA bands).
trastuzumab (humanized IgG1 monoclonal antibody), sequence (P01857 other isoform, or with tags, fused parts or gaps, chain 1 of 2, other chains not shown): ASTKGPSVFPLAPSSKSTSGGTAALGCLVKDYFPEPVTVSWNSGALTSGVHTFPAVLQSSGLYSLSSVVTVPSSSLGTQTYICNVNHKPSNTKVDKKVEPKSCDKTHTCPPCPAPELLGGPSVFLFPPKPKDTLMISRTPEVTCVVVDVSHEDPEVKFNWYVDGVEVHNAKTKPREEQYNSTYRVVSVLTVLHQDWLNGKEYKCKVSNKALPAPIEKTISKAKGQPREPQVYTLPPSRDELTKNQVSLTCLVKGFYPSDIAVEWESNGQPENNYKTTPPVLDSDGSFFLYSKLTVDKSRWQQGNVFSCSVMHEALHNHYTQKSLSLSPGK

B1: Fc RNA aptamer Apt8-2-oxanine (mixed)
DNA: GGAGGTGCTCCGAAAGGAACTCC
modifications: printed ggAGG[2'-F-rU]Gc[2'-F-rU]ccgaaaGgaa[2'-F-rC][2'-F-rU]cc (lowercase DNA, uppercase RNA); about 10 oxanine nucleotides added at 3' end
As to B1, the binding result is “binds”.
